Literature values, collected in PMC8790524.

How the values were obtained:
[1] = biological target: IL12Rβ1 ECD (Homo sapiens) (UniProt P42701); test: ITC
IL23R ECD (Homo sapiens) = IL23R ECD (Homo sapiens) (UniProt Q5VWK5); test: ITC
IL23R ECD (Homo sapiens), sequence (Q5VWK5 24-355): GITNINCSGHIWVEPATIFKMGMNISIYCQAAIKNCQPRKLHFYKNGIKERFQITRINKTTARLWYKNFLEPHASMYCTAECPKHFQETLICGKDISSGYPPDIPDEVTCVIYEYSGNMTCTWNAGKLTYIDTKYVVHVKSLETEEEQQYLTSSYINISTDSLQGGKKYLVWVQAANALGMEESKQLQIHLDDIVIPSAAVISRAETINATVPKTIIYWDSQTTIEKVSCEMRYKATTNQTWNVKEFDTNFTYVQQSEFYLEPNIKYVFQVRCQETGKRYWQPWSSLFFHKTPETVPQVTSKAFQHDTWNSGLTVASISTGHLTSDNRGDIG

IL-23, sequence (Q9NPF7 20-189): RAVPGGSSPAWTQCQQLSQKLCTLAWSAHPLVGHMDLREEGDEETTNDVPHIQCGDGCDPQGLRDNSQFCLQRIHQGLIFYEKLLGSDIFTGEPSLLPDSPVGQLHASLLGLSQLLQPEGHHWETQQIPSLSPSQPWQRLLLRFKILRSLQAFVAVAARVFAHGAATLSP
IL-23, sequence (P29460 23-328, further chain): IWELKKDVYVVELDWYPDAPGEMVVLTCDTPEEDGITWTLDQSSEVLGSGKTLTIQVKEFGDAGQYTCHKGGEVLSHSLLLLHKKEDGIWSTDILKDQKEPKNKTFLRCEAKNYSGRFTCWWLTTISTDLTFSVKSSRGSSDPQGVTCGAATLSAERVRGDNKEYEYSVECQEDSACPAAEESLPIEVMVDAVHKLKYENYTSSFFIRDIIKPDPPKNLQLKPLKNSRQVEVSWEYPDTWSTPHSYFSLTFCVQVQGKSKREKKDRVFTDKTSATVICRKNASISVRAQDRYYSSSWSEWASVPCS

Kd [1]: 2000 nM
Kd (IL23R ECD (Homo sapiens)): 44 nM
Substance: IL-23 (from UniProt Q9NPF7)
